The record followed here is patent publication US20210179726A1 (DINGFU BIOTARGET, published 2021).

Sequences and labels used below:
T1: hCD27-muFc (human; mouse, UniProt P26842 20-192)
T1 construct: range 1-192; Secreted from HEK293, Protein A purified; not shown: mouse IgG1-Fc (muFc), residues 98 to 324 of UniProt P01868
T1 sequence (looked up): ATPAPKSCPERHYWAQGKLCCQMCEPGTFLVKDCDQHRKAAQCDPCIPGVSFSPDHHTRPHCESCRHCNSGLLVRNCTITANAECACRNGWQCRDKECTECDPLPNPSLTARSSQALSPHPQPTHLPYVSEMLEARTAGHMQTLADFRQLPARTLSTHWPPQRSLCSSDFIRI

T2: hCD27-EGFP on HEK293 cells (human, UniProt P26842 20-260)
T2 construct: EGFP fusion expressed on transfected HEK293 cells; also called CD27-EGFP cells; cell surface CD27
T2 sequence (looked up): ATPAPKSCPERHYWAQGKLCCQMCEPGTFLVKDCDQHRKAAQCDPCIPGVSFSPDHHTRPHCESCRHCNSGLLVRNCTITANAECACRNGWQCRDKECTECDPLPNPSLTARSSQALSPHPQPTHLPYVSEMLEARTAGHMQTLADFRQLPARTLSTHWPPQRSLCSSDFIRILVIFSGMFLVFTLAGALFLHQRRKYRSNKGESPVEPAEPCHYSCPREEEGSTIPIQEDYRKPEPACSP

B1: 12996 (antibody, human IgG1, V domains shown, not shown: a dimerising Fc or GST)
VH: EVHLQESGGGLVKPGGSLRLSCAASGFTFSSYAMSWVRQAPEKGLEWVAIIGDGDTYTYYPDSVKGRFTISRDNSKNRLYLQMNSLKSEDTAMYYCVRTRGGPFDYWGQGTTLTVSS
VL: EILLTQSPAFMSATPGEKVTITCSASSSVGSMHWYQQKSGQSPRRLIYDTSKLASGVPDRFSGSGSGTDYTLTISSLEAEDAATYYCQQWSSIPPTFGAGTTLELK
notes: Humanized m2F11, human IgG1 / kappa
B2: 12674 (antibody, human IgG1, V domains shown, not shown: a dimerising Fc or GST)
VH: B1 VH with E42G
VL: B1 VL
notes: as for B1
B3: 14822 (antibody, human IgG1, V domains shown, not shown: a dimerising Fc or GST)
VH: B1 VH with A40M, E42G, R78T
VL: B1 VL
notes: as for B1
B4: 9419 (antibody, human IgG1, V domains shown, not shown: a dimerising Fc or GST)
VH: B1 VH with G10A, S75A, R78T, N84S, S85N
VL: B1 VL
notes: as for B1
B5: d16647 (antibody, human IgG1, V domains shown, not shown: a dimerising Fc or GST)
VH: B1 VH with E1Q, H3E, Q5R, A40T, E42D, S85D
VL: B1 VL
notes: as for B1
B6: d12996 (antibody, human IgG1, V domains shown, not shown: a dimerising Fc or GST)
VH: B1 VH with A40E, G44N, S85D
VL: B1 VL
notes: as for B1
B7: d9419 (antibody, human IgG1, V domains shown, not shown: a dimerising Fc or GST)
VH: B1 VH with G10A, A40K, G44N, S75A, R78T, N84S, S85D
VL: B1 VL
notes: as for B1
B8: 9424 (antibody, human IgG1, V domains shown, not shown: a dimerising Fc or GST)
VH: B1 VH with A40T, S75A, R78T
VL: B1 VL
notes: as for B1
B9: 16647 (antibody, human IgG1, V domains shown, not shown: a dimerising Fc or GST)
VH: B1 VH with E1Q, H3E, Q5R, A40M, E42G
VL: B1 VL
notes: as for B1
B10: d12674 (antibody, human IgG1, V domains shown, not shown: a dimerising Fc or GST)
VH: B1 VH with E42G, S85D
VL: B1 VL
notes: as for B1

Residue numbers refer to the chain shown, from its start.

The first experiment concerns the target T1, hCD27-muFc. Kind of experiment: ELISA, plate coated with hCD27-muFc, Test 1. Here is the method: (§1) The ELISA plate was coated with 2 μg/ml hCD27-muFc, 100 μl/well and incubated at 4° C. overnight. Then it was washed once with 10 mM, pH 7.4 PBS/Tween (0.05%), blocked with PBST containing 5% skimmed milk powder and incubated at 37° C. for 2 h. After washing the plate for 4 times, the humanized antibodies were added and incubated at 37° C. for 40 min, then it was washed for 4 times. Anti-human IgG-HRP-conjugated secondary antibody (Sigma, Cat #A0170-1M) was added and incubated at 37° C. for 40 min. After washing, the plate was developed with TMB substrate and spectrophotometric analysis was performed at OD₄₅₀. In FIGS. 5A-5B, each curve represents the binding result obtained for one of the humanized antibodies. From the results, it can be seen that all these humanized antibodies could bind to human CD27.
In turn, B1 gave a concentration for a half-maximal effect (EC50) of 0.0506 µg/mL.

In turn, B2 came in with an EC50 of 0.0585 µg/mL.

Take B3: it took 0.0427 µg/mL to reach a half-maximal effect (EC50).

The molecule B4 displayed a concentration giving a half-maximal response (EC50) of 0.0583 µg/mL. The EC50 values of the last two molecules are within 1.5-fold of each other.

In turn, B5 registered an EC50 of 0.0376 µg/mL.

With B6, a half-maximal response (EC50) required 0.03 µg/mL.

In the case of B7, the half-maximal effective concentration (EC50) is 0.033 µg/mL.

In a further experiment the target is T1, hCD27-muFc. Kind of experiment: ELISA, plate coated with hCD27-muFc, Test 2. Here is the method: as §1
The molecule B8 showed an EC50 of 0.0342 µg/mL.

On to B9, for which the response was half-maximal at 0.0445 µg/mL (EC50). This EC50 and that of the molecule before are within 1.5-fold of each other.

In the case of B10, the concentration giving a half-maximal response (EC50) is 0.0424 µg/mL.

In the next experiment the target is T1, hCD27-muFc. As to the kind of experiment: BLI (Octet K2), antibody on Protein A biosensor, hCD27-muFc in solution. Here is the method:
Using the BLI method, each humanized antibody was immobilized on a Protein A biosensor at a concentration of 10 μg/ml, while hCD27-muFc was subjected to 2-fold serial dilution, starting from 100 nM, to obtain 5 gradient dilutions for each antibody. The reaction plate was placed on the Octet K2 instrument. The parameters were set to Baseline 70 s, Association 80 s, Dissociation 300 s, Baseline 260 s, Loading 40 s, and Custom 5 s.
B1 returned a Kd of 4.98 nM, a koff of 0.000368 s⁻¹ and an association rate constant (kon) of 73900 M⁻¹ s⁻¹.

In turn, B2 displayed a dissociation constant (Kd) of 3.66 nM, an off-rate (koff) of 0.000291 s⁻¹ and an association rate constant (kon) of 79500 M⁻¹ s⁻¹.

B8: the Kd worked out at 7.02 nM, the off-rate constant (koff) came to 0.000396 s⁻¹ and the kon worked out at 56500 M⁻¹ s⁻¹.

Molecule B9 gave a Kd of 4.86 nM, a koff of 0.000348 s⁻¹ and a kon of 71500 M⁻¹ s⁻¹.

B3 yielded a dissociation constant Kd of 5.15 nM, a koff of 0.000499 s⁻¹ and an on-rate constant (kon) of 97000 M⁻¹ s⁻¹.

Molecule B4 registered a Kd of 2.73 nM, an off-rate constant (koff) of 0.000287 s⁻¹ and an on-rate (kon) of 105000 M⁻¹ s⁻¹.

The molecule B5 had a Kd of 3.05 nM, an off-rate constant (koff) of 0.000281 s⁻¹ and an on-rate constant (kon) of 92100 M⁻¹ s⁻¹.

B6 showed an equilibrium dissociation constant (Kd) of 3.39 nM, a dissociation rate constant (koff) of 0.000326 s⁻¹ and a kon of 96200 M⁻¹ s⁻¹.

Consider B7, for which binding was put at a Kd of 1.7 nM, the koff is 0.000205 s⁻¹ and the association rate constant (kon) worked out at 120000 M⁻¹ s⁻¹.

For the molecule B10, the Kd was 5 nM, the koff is 0.000447 s⁻¹ and the kon came to 89400 M⁻¹ s⁻¹.

The target of another experiment is T2, hCD27-EGFP on HEK293 cells. As to the kind of experiment: FACS titration on CD27-EGFP HEK293 cells, 8 three-fold dilutions from 20 µg/ml, anti-human Ig-APC secondary, MFI; table drawn under the plot, unit from the x axis; no upper plateau reached. How it is done:
Based on the above results of ELISA, 7 humanized antibodies were selected to examine their affinities to cell surface CD27. Briefly, 5×10⁵ CD27-EGFP cells prepared in Example 1 were washed twice in PBS, each of the humanized antibodies (d16647, d12996, d9419, 14822, 9424, d14822, d12674) was added. The antibodies were subjected to 3-fold serial dilution, starting from 20 μg/ml, to obtain 8 gradient dilutions for each antibody. The antibodies and the cells were incubated at 4° C. for 30 min. Then, it was washed twice with PBS, anti-human Ig-APC (Jackson ImmunoResearch Laboratories, Cat #109-135-098) was added, and incubated at 4° C. for 30 min, washed twice with PBS and resuspended in 300 μl PBS. Flow cytometry was then performed, and the results are shown in FIG. 6. m2F11 was used as a control.
As for B8, the LogEC50 is 0.546 Log10(ug/ml).

Take B3: the LogEC50 was 0.62 Log10(ug/ml).

As for B5, the LogEC50 was 0.601 Log10(ug/ml).

Turning to B6, the LogEC50 was 0.562 Log10(ug/ml).

In the case of B7, the LogEC50 was 0.564 Log10(ug/ml).

With B10, the LogEC50 is 0.635 Log10(ug/ml).
